{"source": "the nanobody polyreactivity screen of Harvey et al. (2022)"}
{"experiment": "yeast display, Sf9 membrane polyspecificity reagent, FACS + sequencing; frameworks hold sequencing errors", "method_in_brief": "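In a synthetic yeast display library (Saccharomyces cerevisiae BJ5465), nanobody expression was induced with galactose for 36–48 hours. FACS gates were set low and high (top ~1%) using anti-HA fluorescence for expression and streptavidin fluorescence for binding of the Sf9 membrane reagent. Each polyreactivity label is drawn from the gate of origin.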"}
{"sequence": "QVQLVESGGGLVQAGGSLRLSCAASGNTFRYYAMGWYRQAPGKERELVATITSGGRTYYADSVKGRFTISRDNAKNTVYLQMNSLKPEDTAVYYCAAVGLDYFVGEYDYWGQGTQLTVSS", "polyreactivity (PSR sort gate)": "low polyreactivity"}
{"sequence": "QVQLVESGGGLVQAGGSLRLSCAASGNTFSAYAMGWYRQAPGKERELVAAISSRGGSTYYADSVKGRFTISRDNAKNTVYLQMNSLKPEDTAVYYCAAGWFGTSYRYRSSFDYWGQGTQVTVSS", "polyreactivity (PSR sort gate)": "high polyreactivity"}
{"sequence": "QVQLVESGGGLVQAGGSLRLSCAASGNTFSDYSMGWYRQAPGNERELVAAITISGGSTYYADSVKGRFTISRDNAKNTVYLQMNSLKPEDTAVYYCAADVWYILYDYWGQGTQVTVSS", "polyreactivity (PSR sort gate)": "low polyreactivity"}
{"sequence": "QVQLVESGGGLVQAGGSLRLSCAASGNTFSGNAMGWYRQAPGKERELVAAISGSGASTYYADSVKGRFTISRDNAKNTVYLQMNSLKPEDTAVYYCAADKPGIFSRFDYWGQGTQVTVSS", "polyreactivity (PSR sort gate)": "low polyreactivity"}
{"sequence": "QVQLVESGGGLVQAGGSLRLSCAASGNTFSLYAMGWYRQAPGKERELVAAITWITGSTDYADSVKGRFTISRDNAKNTVYLQMNSLKPEDTAVYYCAADGDFSWFYSYETGWIEYDYWGQGTQVTVSS", "polyreactivity (PSR sort gate)": "low polyreactivity"}
{"sequence": "QVQLVESGGGLVQAGGSLRLSCAASGNTFSSNAMGWYRQAPGKERELVAGITKSGGRTYYADSVKGRFTISRDNAKNTVYLQMNSLKPEDTAVYYCNRRAGPYSIPYYYWGQGTQVTVSS", "polyreactivity (PSR sort gate)": "high polyreactivity"}
{"sequence": "QVQLVESGGGLVQAGGSLRLSCAASGNTFSTYGMGWYRQAPGKERELVAGITSDGRTNYADSVKGRFTISRDNAKNTVYLQMNSMKPEVTAVYYCAAEWASRFAVFWAYPKYDYWGQGTQVTVSS", "polyreactivity (PSR sort gate)": "low polyreactivity"}
{"sequence": "QVQLVESGGGLVQAGGSLRLSCAASGNTFSWYAMGWYRQAPWKERELVAVITSGGSTNYADSVKGRFTISRDNAKNTVYLQMNSLKTEDTAVYYFAADSYGGSKYDYWGQGTQVTVSS", "polyreactivity (PSR sort gate)": "low polyreactivity"}
{"sequence": "QVQLVESGGGLVQAGGSLRLSCAASGNTFTGYAMGWYREAPGKERELVAAITRSGRTYYADSVKGRFTISRDNAKNTVYLQMTSLKPEDTAVYYCAADRRYVKYYYSGQGTQVTVSS", "polyreactivity (PSR sort gate)": "high polyreactivity"}
{"sequence": "QVQLVESGGGLVQAGGSLRLSCAASGNTFTWYTMGWYRQAPGKERELVAVITSDGSTYYADSVKGRFTISRDNAKNTVYLQMNSLKPEDTAVYYCNALSADWYPEEDYWGQGTQVTVSS", "polyreactivity (PSR sort gate)": "low polyreactivity"}
{"sequence": "QVQLVESGGGLVQAGGSLRLSCAASGNTFVKYVIGWYRQAPGKEREYVAAITVRGNTYYADSVKGRFTISRDNAKNTVYLQMNSLKPEDTAVYYCAARIYYLYKDRRLGYYWGQGTQVTVSS", "polyreactivity (PSR sort gate)": "high polyreactivity"}
{"sequence": "QVQLVESGGGLVQAGGSLRLSCAASGNTFVYYAMGWYRQAPGKERELVAGISRRSGSTYYADSVKGRFTISRDNAKNTVYLQMNSLKPEDTAVYYCAKGRTYLDADDYWGQGTQVTVSS", "polyreactivity (PSR sort gate)": "low polyreactivity"}
{"sequence": "QVQLVESGGGLVQAGGSLRLSCAASGNTFVYYNMGWYRQAPGKERELVAAINWSGGSTYYADSVKGRFTISRDNAKNTVYLQMNSLKPEDTAVYYCAADTSYYPYEYWGQGTQVTVSS", "polyreactivity (PSR sort gate)": "high polyreactivity"}
{"sequence": "QVQLVESGGGLVQAGGSLRLSCAASGNTFWRYAMGWYRQAPGKERELVAAITYTSGSTYYADSVKGRFTISRDNAKNTVYLQMNSLKPEDTAVYYCAAESVYGSGYVFRYYYWGQGTQVSVSS", "polyreactivity (PSR sort gate)": "high polyreactivity"}
{"sequence": "QVQLVESGGGLVQAGGSLRLSCAASGNTFYDYGMGWYRQAPGKERELVAGIDGSSTYYADSVKGRFTISRDNAKNTVYLQMNSLKPEDTAVYYCAAYVGSYVSYRAYPRIYYYWGQGTQVTLSS", "polyreactivity (PSR sort gate)": "low polyreactivity"}
{"sequence": "QVQLVESGGGLVQAGGSLRLSCAASGNTFYGYAIGWYRQAPGKERELVASITLSGDSTYYADSVKGRFTISRDNAKNTVYLQMNSLKPEDTAVYYCAGVYTYPLGYYHYTYDYWGQGTQVTVSS", "polyreactivity (PSR sort gate)": "low polyreactivity"}
{"sequence": "QVQLVESGGGLVQAGGSLRLSCAASGNTFYGYAMGWYRQAPGKERDLVATITGSGGDTYYADSVKGRFTISRDNAKNTVYLKMNSLKPEDTAVYYCNAVEYYGGYPGTQYYYLAYNYWGQGTQVTVSS", "polyreactivity (PSR sort gate)": "low polyreactivity"}
{"sequence": "QVQLVESGGGLVQAGGSLRLSCAASGNTFYGYAMGWYRQAPGKERELVASITLSGDSTYYADSVKGRFTISRDNAKNTVYLQMNSLKPADTAVYYCAGVYTYPLGYYHYTYDYWGQGTQVTVSS", "polyreactivity (PSR sort gate)": "low polyreactivity"}
{"sequence": "QVQLVESGGGLVQAGGSLRLSCAASGNTFYGYSMGWYRQAPGKERELVASITLSGDSTYYADSVKGRFTISRDNAKNTVYLQMNSLKPEDTAVYYCARRSRESYEYDYWGQGTQVTVSS", "polyreactivity (PSR sort gate)": "low polyreactivity"}
{"sequence": "QVQLVESGGGLVQAGGSLRLSCAASGNTFYHYAMGWYRQAPVKERELVAGIRYNGGSTYYADSVKGRFTISRDNAKNTVYLQMISLKPEDTAVYYCATRGRTAWYTMDYWGQGTQVTVSS", "polyreactivity (PSR sort gate)": "high polyreactivity"}
{"sequence": "QVQLVESGGGLVQAGGSLRLSCAASGNTFYLYAMGWYRQAPGKEREFVAAITGNGGSTYYADSVKGRFTISRDNAKNTVYLQMNSLKPEDTEVYYCAATFWGYNQYDYWGQGTQVTVSS", "polyreactivity (PSR sort gate)": "high polyreactivity"}
{"sequence": "QVQLVESGGGLVQAGGSLRLSCAASGNTFYRNAMGWYRQAPGKDRELVAAIDYGGSTTYYADSVKGRFTISRDNSKNTVYLQMNSLKPEDTAVYYCAAREYRIGHVQPMDYWGQGTQVTVSS", "polyreactivity (PSR sort gate)": "high polyreactivity"}
{"sequence": "QVQLVESGGGLVQAGGSLRLSCAASGNTFYVKVMGWSRQAPGKERELVARITTSGGSTSYAESVKGRFTISRDNAKNTVSFQMNSMKPEDTAVYYCAASYHAFQNWEYDYWGQGTQVTVSS", "polyreactivity (PSR sort gate)": "low polyreactivity"}
{"sequence": "QVQLVESGGGLVQAGGSLRLSCAASGNTIDRYDMGWYRQPPGKEREFVAAITASAGSTYADSVKGRFTISRDNAKNTVYLQMNSLKPEDSAVYYCNAGNSSTGVDRYDYWGQGTQVTVSS", "polyreactivity (PSR sort gate)": "low polyreactivity"}
{"sequence": "QVQLVESGGGLVQAGGSLRLSCAASGNTIDSYGMGWYRQAPGKERELVAAISTSGGSTYYADSVKGRFTISRDNAKNTVYLQMNSLKPEDTAVYYCNATWTMTYDYWGQGTQVTVSS", "polyreactivity (PSR sort gate)": "low polyreactivity"}
{"sequence": "QVQLVESGGGLVQAGGSLRLSCAASGNTIGKYAMGWYRQAPGKETELVATITRRGGSTYYADSVKGRFTISRDNAKNTVYLQMNSLKPEDTAVYYCNRAVTYGTYDYWGQGTQVTVSS", "polyreactivity (PSR sort gate)": "high polyreactivity"}
{"sequence": "QVQLVESGGGLVQAGGSLRLSCAASGNTLDWYAMGGSRQAPGKERELVAAISSAGSTSYADSVKGRFTISRDNAKNTVYLQMNSLKPEDTAVYYCNVDVYSKDANFQSFASEYDYWGQGTQVTVSS", "polyreactivity (PSR sort gate)": "low polyreactivity"}
{"sequence": "QVQLVESGGGLVQAGGSLRLSCAASGNTLGYYAMGWYRPAPGKERELVATISDDGTTYYADSVKGRFTISRDNAKNTVSLQMNSLKPEDTAVYYCATDGSAQYSMDYWGQGTQVTVSS", "polyreactivity (PSR sort gate)": "low polyreactivity"}
{"sequence": "QVQLVESGGGLVQAGGSLRLSCAASGNTLRYNVMGWYRQAPGKERELVAAISGGGSTSYTDSVKGRLTISRDNAKNTVYLQMNSLKPEDTAVYYCATRSFVGGRGRDSDYWGQGTQVTVSS", "polyreactivity (PSR sort gate)": "low polyreactivity"}
{"sequence": "QVQLVESGGGLVQAGGSLRLSCAASGNTLSFYTMGWYRQAPGKERELVAAISSDGTTYYADSVKGRFTISRDNAKNTVYLQMNSLKPEDTAVYYCAKAHYEWIWTRYDYWGQGTQVTVSS", "polyreactivity (PSR sort gate)": "low polyreactivity"}
{"sequence": "QVQLVESGGGLVQAGGSLRLSCAASGNTLVYYAMGWYRQAPGKERELVADISSSGGITYYADSVKGRFTISRDNAKNTVYLLMNSLKPVDTAVYYCAVDYPLYYWYLYNYWGQGTQVTVSS", "polyreactivity (PSR sort gate)": "low polyreactivity"}
{"sequence": "QVQLVESGGGLVQAGGSLRLSCAASGNTLYTNAMGWYRQAPGKERELVAVISRGGSTYYADSVKGRFTISRDNAKNTVYLQMNSLKPEDTAVYYCATYGSSWSRAYGYWGQGTQVTVSS", "polyreactivity (PSR sort gate)": "high polyreactivity"}
{"sequence": "QVQLVESGGGLVQAGGSLRLSCAASGNTVWYNAMGWFIQAPGKETELVAAISYSGGGTYYAVSVKGRFTISREKAKNTVYLQMNCLKPDDSAVYYCSADTLQRAFVLYDYWGQGTQVTVSS", "polyreactivity (PSR sort gate)": "low polyreactivity"}
{"sequence": "QVQLVESGGGLVQAGGSLRLSCAASGNTVYYYGMGWYRQAPGKERDLVAAINYSGGSTYYADSVKGRNTISRDNAKNTVYLPMNSKKPEVTAVYYCNADYVPAYRDLASLADGYYWGQGTQVTVSS", "polyreactivity (PSR sort gate)": "low polyreactivity"}
{"sequence": "QVQLVESGGGLVQAGGSLRLSCAASGNTYSYNAMGWYRQAPGKEREFVASISRRGGRTNYADSVKGRFTISRDNAKNTVYLQMNSLKPEDTAVYYCAATTVPLGDYWGQVTQVTVSS", "polyreactivity (PSR sort gate)": "high polyreactivity"}
{"sequence": "QVQLVESGGGLVQAGGSLRLSCAASGPIYTYAMGWYRHAPGKERELVAAISRRGGSTYYADSVKGRFTISRDNAKNTVYLQMNSLKPEDTAVYYCAKERSFGDGNFDYEYWGQGTQVTVSS", "polyreactivity (PSR sort gate)": "high polyreactivity"}
{"sequence": "QVQLVESGGGLVQAGGSLRLSCAASGPNFTKYAMGWYRPAPGKERELVAGISSRGTSTYYADSVKGRFTISRDNAKNTVYLQMNSLKPEDTAVYYCNKDSKSRFTYDYWGQGTQVTVSS", "polyreactivity (PSR sort gate)": "high polyreactivity"}
{"sequence": "QVQLVESGGGLVQAGGSLRLSCAASGPTFNRYTMGWYRQAPGKERELVATITGGGSTNYADSVKGRFTISRDNAKNTVYLQMNSLKPEDTAVYYCARAVVQSRGPPRYKTPYDYWGQGTQVTVSS", "polyreactivity (PSR sort gate)": "low polyreactivity"}
{"sequence": "QVQLVESGGGLVQAGGSLRLSCAASGQIFVRNAMGWYRQAPGKERELVARISSGGSTNYADSVKGRFTISRDNAKNTVYLQMISLKPEDTAVYYCAARVYKGWPTHYDYWGQGTQVTVSS", "polyreactivity (PSR sort gate)": "high polyreactivity"}
{"sequence": "QVQLVESGGGLVQAGGSLRLSCAASGRAFYGNAMGWYRPAPGKERELVASISQRGGSTYYADSVKGRFTISRDTAKNTVYLQMNSLKPEDTAVYYCAARRKGYSTGLGHRISYDYWGQGTQVTVSS", "polyreactivity (PSR sort gate)": "high polyreactivity"}
